In the supplement of paper PMC7125110:
± gives the standard error. For some of these results: Fewer inactive variants are shown than the library holds.

B1: glmS ribozyme (parent)
chain: AUAAAAGCGCCAGAACUACAGAAAUGUAGUUGACGAGGAGGAGGUUUAUCGAAUUUUCGGCGGAUGCCUCCAAA

Columns and labels:
Conditions in all cases: with glucosamine-6-phosphate
glucosamine-6-phosphate [1] = variants of: B1; test: kcat; higher = faster cleavage; RNA array
Procedure, shortened: (§1)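 kobs was derived by fitting per-tile medians to one- or two-exponential decays after normalising signals to baseline and to non-cleaving reference variants. Those signals came from barcoded ribozyme variants transcribed in situ by E. coli RNA polymerase on sequenced MiSeq chips, followed through a hybridised Cy3 probe at 37 °C and imaged over ~14 h. Glucosamine-6-phosphate (40 μM to 10 mM) in HEPES/KCl/Mg(OAc)2 buffer was flowed in. Weighted Michaelis–Menten fits across concentrations then gave kcat and KM.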

glucosamine-6-phosphate [2] = variants of: B1; test: KM; higher = weaker cofactor use; RNA array
Procedure, shortened: as §1

glucosamine-6-phosphate [3] = variants of: B1; test: self-cleavage kobs at 160 uM GlcN6P; higher = faster cleavage; RNA array
Procedure, shortened: as §1

glucosamine-6-phosphate [4] = variants of: B1; test: self-cleavage kobs at 640 uM GlcN6P; higher = faster cleavage; RNA array
Procedure, shortened: as §1

glucosamine-6-phosphate [5] = variants of: B1; test: self-cleavage kobs at 2500 uM GlcN6P; higher = faster cleavage; RNA array
Procedure, shortened: as §1

glucosamine-6-phosphate [6] = variants of: B1; test: self-cleavage kobs at 10000 uM GlcN6P; higher = faster cleavage; RNA array
Procedure, shortened: as §1

glucosamine-6-phosphate [7] = variants of: B1; test: self-cleavage kobs at 40 uM GlcN6P; higher = faster cleavage; RNA array
Procedure, shortened: as §1

Variant	kcat (glucosamine-6-phosphate [1])	KM (glucosamine-6-phosphate [2])	self-cleavage kobs at 160 uM GlcN6P (glucosamine-6-phosphate [3])	self-cleavage kobs at 640 uM GlcN6P (glucosamine-6-phosphate [4])	self-cleavage kobs at 2500 uM GlcN6P (glucosamine-6-phosphate [5])	self-cleavage kobs at 10000 uM GlcN6P (glucosamine-6-phosphate [6])	self-cleavage kobs at 40 uM GlcN6P (glucosamine-6-phosphate [7])
U54A G66C	0.000876 ± 0.00013 s⁻¹	1230 ± 390 µM	0.00012 ± 2.7e-05 s⁻¹	0.000259 ± 6.7e-05 s⁻¹	0.000758 ± 0.00014 s⁻¹	0.000737 ± 0.0001 s⁻¹	
A15U U55A	0.00715 ± 0.0012 s⁻¹	2060 ± 490 µM	0.000472 ± 5.3e-05 s⁻¹	0.00147 ± 0.00021 s⁻¹	0.00588 ± 0.0011 s⁻¹	0.00586 ± 0.00053 s⁻¹	0.000164 ± 1.8e-05 s⁻¹
C16A U57A	2.09e-05 ± 4.3e-06 s⁻¹		< 1e-05 s⁻¹				< 1e-05 s⁻¹
A64G C70U	0.00369 ± 0.001 s⁻¹	2630 ± 1000 µM	0.000149 ± 2.2e-05 s⁻¹	0.000786 ± 7.7e-05 s⁻¹	0.00162 ± 0.00027 s⁻¹	0.00298 ± 0.00027 s⁻¹	7.77e-05 ± 7.5e-06 s⁻¹
C16U G43U	4.2e-05 ± 1.9e-07 s⁻¹	1250 ± 27 µM			2.81e-05 ± 1.3e-05 s⁻¹	3.73e-05 ± 1e-05 s⁻¹	
A39C G43U C68U	9.32e-05 ± 1.5e-05 s⁻¹	1780 ± 810 µM			5.95e-05 ± 1.4e-05 s⁻¹	7.63e-05 ± 1.8e-05 s⁻¹	
G41A G66U	8e-05 ± 4.8e-06 s⁻¹	2190 ± 390 µM		2.19e-05 ± 1e-05 s⁻¹	4.07e-05 ± 7.8e-06 s⁻¹	6.65e-05 ± 8.4e-06 s⁻¹	
A53G U69G	6.03e-05 ± 8.2e-06 s⁻¹		0.000101 ± 1.8e-05 s⁻¹	6.89e-05 ± 1.2e-05 s⁻¹	5.73e-05 ± 9.6e-06 s⁻¹	5.13e-05 ± 8e-06 s⁻¹	5.96e-05 ± 1e-05 s⁻¹
A39U C67G	0.00521 ± 0.0013 s⁻¹	1290 ± 420 µM	0.000514 ± 7.5e-05 s⁻¹	0.00221 ± 0.00032 s⁻¹	0.00196 ± 0.00069 s⁻¹	0.00516 ± 0.00068 s⁻¹	0.000162 ± 1.8e-05 s⁻¹
G13A A52G	6.74e-05 ± 2.2e-06 s⁻¹	1040 ± 140 µM			4.85e-05 ± 1.2e-05 s⁻¹	6.07e-05 ± 1.1e-05 s⁻¹	
U55G C67A	0.000773 ± 0.00021 s⁻¹		0.000394 ± 8.8e-05 s⁻¹	0.000772 ± 0.00013 s⁻¹			0.000267 ± 4.8e-05 s⁻¹
A15U U69A	7.22e-05 ± 1.3e-05 s⁻¹			4.48e-05 ± 1.1e-05 s⁻¹	8.33e-05 ± 1e-05 s⁻¹	5.39e-05 ± 1.2e-05 s⁻¹	
A64U G66A	0.000113 ± 1.2e-05 s⁻¹	3460 ± 930 µM			4.95e-05 ± 8.6e-06 s⁻¹	8.32e-05 ± 1e-05 s⁻¹	< 1e-05 s⁻¹
A15C G41C	3.33e-05 ± 2.9e-06 s⁻¹	1850 ± 570 µM				2.79e-05 ± 1.2e-05 s⁻¹	
U30C A52G	1.33e-05 ± 2.9e-06 s⁻¹						
A14U C50G	0.000106 ± 3e-05 s⁻¹		0.000164 ± 3e-05 s⁻¹		9.1e-05 ± 1.6e-05 s⁻¹	0.000112 ± 5e-05 s⁻¹	4.12e-05 ± 1.3e-05 s⁻¹
G13A C70U	0.000795 ± 0.00019 s⁻¹	2410 ± 870 µM	7.83e-05 ± 1.4e-05 s⁻¹	0.000154 ± 1.7e-05 s⁻¹	0.000388 ± 6.1e-05 s⁻¹	0.000676 ± 9.5e-05 s⁻¹	

Variant	kcat (glucosamine-6-phosphate [1])	KM (glucosamine-6-phosphate [2])	self-cleavage kobs at 160 uM GlcN6P (glucosamine-6-phosphate [3])	self-cleavage kobs at 640 uM GlcN6P (glucosamine-6-phosphate [4])	self-cleavage kobs at 2500 uM GlcN6P (glucosamine-6-phosphate [5])	self-cleavage kobs at 10000 uM GlcN6P (glucosamine-6-phosphate [6])	self-cleavage kobs at 40 uM GlcN6P (glucosamine-6-phosphate [7])
A12G A15G	0.000505 ± 0.00012 s⁻¹	4550 ± 1800 µM	2.24e-05 ± 1e-05 s⁻¹	7.71e-05 ± 9.2e-06 s⁻¹	0.000155 ± 1.5e-05 s⁻¹	0.000371 ± 3.2e-05 s⁻¹	
A53C U54A	0.00804 ± 0.0035 s⁻¹		0.000353 ± 9.2e-05 s⁻¹	0.00128 ± 0.00018 s⁻¹	0.00277 ± 0.00065 s⁻¹	0.00747 ± 0.00098 s⁻¹	0.000184 ± 2.3e-05 s⁻¹
G13C A52G	1.51e-05 ± 1.5e-06 s⁻¹	3660 ± 1000 µM					
G38A C68A	< 1e-05 s⁻¹					< 1e-05 s⁻¹	< 1e-05 s⁻¹
U49G C50G	< 1e-05 s⁻¹			< 1e-05 s⁻¹			
U31G G38U	< 1e-05 s⁻¹						
U31G G40A	0.00279 ± 0.00072 s⁻¹	1460 ± 560 µM	0.000269 ± 5.2e-05 s⁻¹	0.000715 ± 0.00014 s⁻¹	0.0018 ± 0.00027 s⁻¹	0.00301 ± 0.00099 s⁻¹	0.00011 ± 2.4e-05 s⁻¹
G13A C16A	0.000316 ± 9.2e-06 s⁻¹				4.78e-05 ± 7.4e-06 s⁻¹	0.000132 ± 1.9e-05 s⁻¹	
A36C C71G	1.27e-05 ± 2.5e-06 s⁻¹						
U55C A64C	1.63e-05 ± 1.9e-06 s⁻¹		< 1e-05 s⁻¹				
U56A G66A	0.00503 ± 0.0023 s⁻¹		0.00039 ± 6.4e-05 s⁻¹	0.00117 ± 0.00021 s⁻¹	0.00253 ± 0.00043 s⁻¹	0.00718 ± 0.0011 s⁻¹	0.000167 ± 1.7e-05 s⁻¹
U47A C50A	4.12e-05 ± 2e-06 s⁻¹	5840 ± 720 µM				2.6e-05 ± 9.8e-06 s⁻¹	
A53C G66U	0.000484 ± 6.4e-05 s⁻¹	1770 ± 450 µM	3.36e-05 ± 1.5e-05 s⁻¹	0.000128 ± 3.6e-05 s⁻¹	0.000344 ± 8.3e-05 s⁻¹	0.00039 ± 7.6e-05 s⁻¹	
A64U U65G	1.26e-05 ± 1e-06 s⁻¹						
A14U U46C	0.00036 ± 8.4e-05 s⁻¹	956 ± 430 µM	6.29e-05 ± 9.9e-06 s⁻¹	0.000126 ± 1.4e-05 s⁻¹	0.000395 ± 5.3e-05 s⁻¹	0.000305 ± 4e-05 s⁻¹	
G13A C71U	0.00103 ± 0.00012 s⁻¹	4730 ± 920 µM	2.52e-05 ± 8.2e-06 s⁻¹	0.000138 ± 2e-05 s⁻¹	0.000358 ± 5.1e-05 s⁻¹	0.000698 ± 5.9e-05 s⁻¹	
U30G C67A	0.00145 ± 0.00047 s⁻¹		0.000175 ± 3.3e-05 s⁻¹	0.000561 ± 9.1e-05 s⁻¹	0.00063 ± 0.00017 s⁻¹	0.00188 ± 0.00029 s⁻¹	6.13e-05 ± 1.3e-05 s⁻¹
